# Experimental data taken from publication PMC5458211, “Mitochondrial VDAC1-based peptides: Attacking oncogenic properties in glioblastoma” (Oncotarget, 2017).
# Non-standard residues stand in square brackets, D forms with d. No end group written: not given here.
# T1: Hexokinase II (HK-II), purified (UniProt P52789 1-917, fluorescently labeled using the NanoTemper protein-labeling Kit BLUE)
# T1 construct: hexokinase II (HK-II)
# T1 sequence (looked up): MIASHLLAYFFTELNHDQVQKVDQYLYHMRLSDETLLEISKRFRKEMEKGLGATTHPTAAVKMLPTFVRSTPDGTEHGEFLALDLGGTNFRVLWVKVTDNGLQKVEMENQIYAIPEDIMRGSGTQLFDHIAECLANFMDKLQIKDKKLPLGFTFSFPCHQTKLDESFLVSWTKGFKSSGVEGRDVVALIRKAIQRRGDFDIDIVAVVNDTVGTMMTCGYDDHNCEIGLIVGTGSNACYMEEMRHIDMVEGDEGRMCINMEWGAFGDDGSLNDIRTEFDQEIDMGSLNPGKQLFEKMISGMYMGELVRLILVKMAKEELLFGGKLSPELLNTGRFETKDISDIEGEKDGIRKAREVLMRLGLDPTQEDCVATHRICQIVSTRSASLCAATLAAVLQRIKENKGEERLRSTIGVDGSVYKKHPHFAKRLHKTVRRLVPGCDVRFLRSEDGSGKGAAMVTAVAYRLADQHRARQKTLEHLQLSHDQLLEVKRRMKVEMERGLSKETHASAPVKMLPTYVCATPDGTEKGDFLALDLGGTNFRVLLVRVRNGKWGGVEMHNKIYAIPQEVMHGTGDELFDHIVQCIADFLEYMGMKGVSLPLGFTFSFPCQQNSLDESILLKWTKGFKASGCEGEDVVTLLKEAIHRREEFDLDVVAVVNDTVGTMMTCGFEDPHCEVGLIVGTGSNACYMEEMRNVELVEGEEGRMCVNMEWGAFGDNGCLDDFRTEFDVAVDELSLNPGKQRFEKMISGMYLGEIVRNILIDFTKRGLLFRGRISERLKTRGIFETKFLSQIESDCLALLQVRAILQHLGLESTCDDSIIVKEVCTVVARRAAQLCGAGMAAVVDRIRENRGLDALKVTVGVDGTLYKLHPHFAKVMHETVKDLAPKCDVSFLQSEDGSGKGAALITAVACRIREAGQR
# Target: T1, Hexokinase II (HK-II), purified
# Assay: MST; HK-II (100 nM), fluorescently labelled (NanoTemper Kit BLUE), incubated with Tf-D-LP4 (1-100 μM) for 20 min; MST-grade glass capillaries, Monolith-NT115
# Details: both partners purified
binder,measurement,value
"HAIYPRHSWTWE[dK][dK][dL][dE][dT][dA][dV][dN][dL][dA][dW][dT][dA]G[dN][dS][dN]KWTWK (L-amino acids; amino acids added to form a loop-shaped tryptophan zipper (N-terminal half); amino acids added to form a loop-shaped tryptophan zipper (C-terminal half); 34 residues in all; the VDAC1-derived stretch is made of D-amino acids, the rest of L-amino acids; also called VDAC1-based peptide; Tf-D-LP4 peptide; source: synthetic peptide (GL Biochem, Shanghai, >95% purity), dissolved in DMSO) [Tf-D-LP4]",Kd,16.6 µM
